Data from US8329168.

Tested on: Met-SC1-325-His-6 (fragment comprising residues 1-325 of staphylocoagulase with an additional Met at the NH2 terminus and a His tag fused to the COOH terminus)

For “IIQ320 (recombinant human prothrombin containing Gln in place of Arg-320)”, the “conformational activation (initial rates of S2238 hydrolysis)” value was “Conformational activation of IIQ320 and its covalent inactivation with FPR-CH2Cl was accomplished by the addition of 43 µM Met-SC1-325-His-6”.
